From article PMC13108567 (2026)

Key:
[1] = biological target: PD-1 biotinylated dimer (human, UniProt Q15116 25-288, biotin); test: BLI
[2] = biological target: human programmed cell death protein 1 on PD-1 hi transgenic Jurkat cells (human, UniProt Q15116 25-288); test: FACS
Sequence of human programmed cell death protein 1 on PD-1 hi transgenic Jurkat cells (Q15116 25-288): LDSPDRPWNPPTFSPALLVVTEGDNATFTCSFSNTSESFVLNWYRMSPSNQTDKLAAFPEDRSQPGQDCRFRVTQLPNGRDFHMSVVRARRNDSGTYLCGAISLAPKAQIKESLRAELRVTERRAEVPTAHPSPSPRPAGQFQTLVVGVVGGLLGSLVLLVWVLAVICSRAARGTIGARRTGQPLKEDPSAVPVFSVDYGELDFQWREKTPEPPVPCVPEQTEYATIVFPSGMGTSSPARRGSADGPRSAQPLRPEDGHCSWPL

Sequence of PD-1 biotinylated dimer (Q15116 25-170): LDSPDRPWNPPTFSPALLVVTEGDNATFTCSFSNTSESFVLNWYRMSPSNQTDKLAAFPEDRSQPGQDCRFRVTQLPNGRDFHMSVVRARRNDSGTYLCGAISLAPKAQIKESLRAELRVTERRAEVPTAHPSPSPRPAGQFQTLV

B1: Fab of anti-PD-1 clone 135c139d6 (Fab, V domains shown)
VH: EVQLVQSGAEVKKPGESLKISCKGSGYSFTNFYIHWVRQAPGQRLEWMGSIYPNYGDTAYNQKFKDRFVFSLDTSVSTAYLQISSLKAEDTAVYYCARGYSYAMDYWGQGTTVTVSS
VL: DIQMTQSPSSVSASVGDRVTITCSASQGISGDLNWYQQKPGKAPKLLIYHTSSLHSGVPSRFSGSGSGTDFTLTISSLQPEDFATYYCQYYSKDLLTFGGGTKLEIK
**Q.** With B1 as the binder, how does the Kd [1] read?
**A.** Its Kd is 16 nM.

**Q.** What about the EC50 [2] of the same binder?
**A.** Its EC50 is 42 nM.

B2: scFv-His of anti-PD-1 clone 135c139d6 (scFv, V domains shown)
VH: EVQLVQSGAEVKKPGESLKISCKGSGYSFTNFYIHWVRQAPGQRLEWMGSIYPNYGDTAYNQKFKDRFVFSLDTSVSTAYLQISSLKAEDTAVYYCARGYSYAMDYWGQGTTVTVSS
VL: DIQMTQSPSSVSASVGDRVTITCSASQGISGDLNWYQQKPGKAPKLLIYHTSSLHSGVPSRFSGSGSGTDFTLTISSLQPEDFATYYCQYYSKDLLTFGGGTKLEIK
**Q.** Which results are given for B2?
**A.** Kd [1]: 10 nM; EC50 [2]: 162 nM
